According to publication PMC4974663, “The ATPase hCINAP regulates 18S rRNA processing and is essential for embryogenesis and tumour growth” (Nature Communications, 2016):

Molecular target: T1, GST-RPS14 (UniProt P62263 1-151)
T1 construct: ribosomal protein RPS14; also called recombinant GST-RPS14
Experiment: pull-down; GST-RPS14 and His-hCINAP incubated in 1 ml NP-40 lysis buffer (50 mM Tris pH 8.0, 150 mM NaCl, 1% NP-40) for 2 h at 4 °C, then ATP or AMP-PNP at 1 mM with 5 mM MgCl2 for 1 h; GST beads 1 h; western blot
Settings: both partners purified

B1: His-hCINAP (enzyme)
chain: MLLPNILLTGTPGVGKTTLGKELASKSGLKYINVGDLAREEQLYDGYDEEYDCPILDEDRVVDELDNQMREGGVIVDYHGCDFFPERWFHIVFVLRTDTNVLYERLETRGYNEKKLTDNIQCEIFQVLYEEATASYKEEIVHQLPSNKPEELENNVDQILKWIEQWIKDHNS
notes: also called His6-hCINAP
- binding result: binds
